{"source": "paper PMC12102759", "about": "(2025)", "parents": {"B1": {"name": "AXIN1 peptide 237-252 (Axin-1), 16-mer library wild type / PP2A B56 (PPP2R5A B56 domain, residues 1-486) (parent complex)", "chain 1": "YLPTLNEDEEWKADQD", "chain 2": "not shown"}}, "data": [{"variants_of": "B1", "assay": "proteomic peptide phage display deep mutational scan (ProP-PD DMS): M13 P8 16-mer library selected against immobilised GST-tagged bait for four days (rounds), NGS of the eluted pools per day and pseudo-replica; bait immobilised on MaxiSorp plates (10 µg), library pre-cleared on GST, 2 h binding at 4 °C, five washes; one round per day, days 1-4; value from days 2 and 3", "values": [{"variant": "chain 1 E9H", "screen value": "0.000956 average fractional NGS count over selection days 2 and 3 (reads of this peptide / all reads for the bait, averaged over …"}, {"variant": "chain 1 E9F", "screen value": "0.00128 average fractional NGS count over selection days 2 and 3 (reads of this peptide / all reads for the bait, averaged over …"}, {"variant": "chain 1 E9K", "screen value": "0.00203 average fractional NGS count over selection days 2 and 3 (reads of this peptide / all reads for the bait, averaged over …"}, {"variant": "chain 1 E9M", "screen value": "0.00292 average fractional NGS count over selection days 2 and 3 (reads of this peptide / all reads for the bait, averaged over …"}, {"variant": "chain 1 N6E", "screen value": "0.00107 average fractional NGS count over selection days 2 and 3 (reads of this peptide / all reads for the bait, averaged over …"}, {"variant": "chain 1 N6D", "screen value": "0.00102 average fractional NGS count over selection days 2 and 3 (reads of this peptide / all reads for the bait, averaged over …"}, {"variant": "chain 1 N6V", "screen value": "0.00339 average fractional NGS count over selection days 2 and 3 (reads of this peptide / all reads for the bait, averaged over …"}, {"variant": "chain 1 N6K", "screen value": "0.0012 average fractional NGS count over selection days 2 and 3 (reads of this peptide / all reads for the bait, averaged over …"}, {"variant": "chain 1 N6R", "screen value": "0.000965 average fractional NGS count over selection days 2 and 3 (reads of this peptide / all reads for the bait, averaged over …"}, {"variant": "chain 1 N6H", "screen value": "0.0272 average fractional NGS count over selection days 2 and 3 (reads of this peptide / all reads for the bait, averaged over …"}, {"variant": "chain 1 D8A", "screen value": "0.000509 average fractional NGS count over selection days 2 and 3 (reads of this peptide / all reads for the bait, averaged over …"}, {"variant": "chain 1 D8I", "screen value": "0.000369 average fractional NGS count over selection days 2 and 3 (reads of this peptide / all reads for the bait, averaged over …"}, {"variant": "chain 1 D8V", "screen value": "0.000175 average fractional NGS count over selection days 2 and 3 (reads of this peptide / all reads for the bait, averaged over …"}, {"variant": "chain 1 D8M", "screen value": "0.000462 average fractional NGS count over selection days 2 and 3 (reads of this peptide / all reads for the bait, averaged over …"}, {"variant": "chain 1 D8K", "screen value": "0.00103 average fractional NGS count over selection days 2 and 3 (reads of this peptide / all reads for the bait, averaged over …"}, {"variant": "chain 1 D8L", "screen value": "0.00362 average fractional NGS count over selection days 2 and 3 (reads of this peptide / all reads for the bait, averaged over …"}, {"variant": "chain 1 D8W", "screen value": "0.000322 average fractional NGS count over selection days 2 and 3 (reads of this peptide / all reads for the bait, averaged over …"}, {"variant": "chain 1 D8Q", "screen value": "0.00238 average fractional NGS count over selection days 2 and 3 (reads of this peptide / all reads for the bait, averaged over …"}, {"variant": "chain 1 D8S", "screen value": "0.0116 average fractional NGS count over selection days 2 and 3 (reads of this peptide / all reads for the bait, averaged over …"}, {"variant": "chain 1 D8N", "screen value": "0.000367 average fractional NGS count over selection days 2 and 3 (reads of this peptide / all reads for the bait, averaged over …"}, {"variant": "chain 1 D8T", "screen value": "0.000632 average fractional NGS count over selection days 2 and 3 (reads of this peptide / all reads for the bait, averaged over …"}, {"variant": "chain 1 D14L", "screen value": "0.00106 average fractional NGS count over selection days 2 and 3 (reads of this peptide / all reads for the bait, averaged over …"}, {"variant": "chain 1 D14P", "screen value": "0.00181 average fractional NGS count over selection days 2 and 3 (reads of this peptide / all reads for the bait, averaged over …"}, {"variant": "chain 1 D14F", "screen value": "0.0121 average fractional NGS count over selection days 2 and 3 (reads of this peptide / all reads for the bait, averaged over …"}, {"variant": "chain 1 D14W", "screen value": "0.0112 average fractional NGS count over selection days 2 and 3 (reads of this peptide / all reads for the bait, averaged over …"}, {"variant": "chain 1 D14R", "screen value": "0.0071 average fractional NGS count over selection days 2 and 3 (reads of this peptide / all reads for the bait, averaged over …"}, {"variant": "chain 1 D14M", "screen value": "0.0116 average fractional NGS count over selection days 2 and 3 (reads of this peptide / all reads for the bait, averaged over …"}, {"variant": "chain 1 D14E", "screen value": "0.00475 average fractional NGS count over selection days 2 and 3 (reads of this peptide / all reads for the bait, averaged over …"}, {"variant": "chain 1 D14H", "screen value": "0.038 average fractional NGS count over selection days 2 and 3 (reads of this peptide / all reads for the bait, averaged over …"}, {"variant": "chain 1 D14Q", "screen value": "0.00055 average fractional NGS count over selection days 2 and 3 (reads of this peptide / all reads for the bait, averaged over …"}, {"variant": "chain 1 D14K", "screen value": "0.000793 average fractional NGS count over selection days 2 and 3 (reads of this peptide / all reads for the bait, averaged over …"}, {"variant": "chain 1 K12T", "screen value": "0.00858 average fractional NGS count over selection days 2 and 3 (reads of this peptide / all reads for the bait, averaged over …"}, {"variant": "chain 1 K12G", "screen value": "0.00482 average fractional NGS count over selection days 2 and 3 (reads of this peptide / all reads for the bait, averaged over …"}, {"variant": "chain 1 K12P", "screen value": "0.00867 average fractional NGS count over selection days 2 and 3 (reads of this peptide / all reads for the bait, averaged over …"}, {"variant": "chain 1 K12L", "screen value": "0.00105 average fractional NGS count over selection days 2 and 3 (reads of this peptide / all reads for the bait, averaged over …"}, {"variant": "chain 1 K12A", "screen value": "0.00844 average fractional NGS count over selection days 2 and 3 (reads of this peptide / all reads for the bait, averaged over …"}, {"variant": "chain 1 K12S", "screen value": "0.0233 average fractional NGS count over selection days 2 and 3 (reads of this peptide / all reads for the bait, averaged over …"}, {"variant": "chain 1 K12I", "screen value": "0.00212 average fractional NGS count over selection days 2 and 3 (reads of this peptide / all reads for the bait, averaged over …"}, {"variant": "chain 1 K12D", "screen value": "0.000722 average fractional NGS count over selection days 2 and 3 (reads of this peptide / all reads for the bait, averaged over …"}, {"variant": "chain 1 K12F", "screen value": "0.00191 average fractional NGS count over selection days 2 and 3 (reads of this peptide / all reads for the bait, averaged over …"}, {"variant": "chain 1 K12Y", "screen value": "0.00745 average fractional NGS count over selection days 2 and 3 (reads of this peptide / all reads for the bait, averaged over …"}, {"variant": "chain 1 K12E", "screen value": "0.000936 average fractional NGS count over selection days 2 and 3 (reads of this peptide / all reads for the bait, averaged over …"}, {"variant": "chain 1 K12M", "screen value": "0.000504 average fractional NGS count over selection days 2 and 3 (reads of this peptide / all reads for the bait, averaged over …"}, {"variant": "chain 1 K12W", "screen value": "0.0129 average fractional NGS count over selection days 2 and 3 (reads of this peptide / all reads for the bait, averaged over …"}, {"variant": "chain 1 T4S", "screen value": "0.000737 average fractional NGS count over selection days 2 and 3 (reads of this peptide / all reads for the bait, averaged over …"}, {"variant": "chain 1 T4Y", "screen value": "0.00014 average fractional NGS count over selection days 2 and 3 (reads of this peptide / all reads for the bait, averaged over …"}, {"variant": "chain 1 T4V", "screen value": "0.000271 average fractional NGS count over selection days 2 and 3 (reads of this peptide / all reads for the bait, averaged over …"}, {"variant": "chain 1 T4M", "screen value": "0.000565 average fractional NGS count over selection days 2 and 3 (reads of this peptide / all reads for the bait, averaged over …"}, {"variant": "chain 1 Y1Q", "screen value": "0.000381 average fractional NGS count over selection days 2 and 3 (reads of this peptide / all reads for the bait, averaged over …"}, {"variant": "chain 1 Y1K", "screen value": "0.000785 average fractional NGS count over selection days 2 and 3 (reads of this peptide / all reads for the bait, averaged over …"}, {"variant": "chain 1 Y1R", "screen value": "0.000195 average fractional NGS count over selection days 2 and 3 (reads of this peptide / all reads for the bait, averaged over …"}, {"variant": "chain 1 Y1H", "screen value": "0.000114 average fractional NGS count over selection days 2 and 3 (reads of this peptide / all reads for the bait, averaged over …"}, {"variant": "chain 1 Y1M", "screen value": "0.000646 average fractional NGS count over selection days 2 and 3 (reads of this peptide / all reads for the bait, averaged over …"}, {"variant": "chain 1 Y1L", "screen value": "0.00157 average fractional NGS count over selection days 2 and 3 (reads of this peptide / all reads for the bait, averaged over …"}, {"variant": "chain 1 Y1P", "screen value": "0.000164 average fractional NGS count over selection days 2 and 3 (reads of this peptide / all reads for the bait, averaged over …"}, {"variant": "chain 1 Y1A", "screen value": "0.000622 average fractional NGS count over selection days 2 and 3 (reads of this peptide / all reads for the bait, averaged over …"}, {"variant": "chain 1 Y1I", "screen value": "0.00029 average fractional NGS count over selection days 2 and 3 (reads of this peptide / all reads for the bait, averaged over …"}, {"variant": "chain 1 Y1N", "screen value": "0.000299 average fractional NGS count over selection days 2 and 3 (reads of this peptide / all reads for the bait, averaged over …"}, {"variant": "chain 1 Y1V", "screen value": "0.000255 average fractional NGS count over selection days 2 and 3 (reads of this peptide / all reads for the bait, averaged over …"}, {"variant": "chain 1 Y1T", "screen value": "0.00199 average fractional NGS count over selection days 2 and 3 (reads of this peptide / all reads for the bait, averaged over …"}, {"variant": "chain 1 L2M", "screen value": "0.000692 average fractional NGS count over selection days 2 and 3 (reads of this peptide / all reads for the bait, averaged over …"}, {"variant": "chain 1 A13F", "screen value": "0.000843 average fractional NGS count over selection days 2 and 3 (reads of this peptide / all reads for the bait, averaged over …"}, {"variant": "chain 1 A13H", "screen value": "0.00442 average fractional NGS count over selection days 2 and 3 (reads of this peptide / all reads for the bait, averaged over …"}, {"variant": "chain 1 A13G", "screen value": "0.000231 average fractional NGS count over selection days 2 and 3 (reads of this peptide / all reads for the bait, averaged over …"}, {"variant": "chain 1 A13T", "screen value": "0.000184 average fractional NGS count over selection days 2 and 3 (reads of this peptide / all reads for the bait, averaged over …"}, {"variant": "chain 1 A13M", "screen value": "0.000333 average fractional NGS count over selection days 2 and 3 (reads of this peptide / all reads for the bait, averaged over …"}, {"variant": "chain 1 A13Q", "screen value": "0.000245 average fractional NGS count over selection days 2 and 3 (reads of this peptide / all reads for the bait, averaged over …"}, {"variant": "chain 1 A13Y", "screen value": "0.00559 average fractional NGS count over selection days 2 and 3 (reads of this peptide / all reads for the bait, averaged over …"}, {"variant": "chain 1 A13I", "screen value": "0.00149 average fractional NGS count over selection days 2 and 3 (reads of this peptide / all reads for the bait, averaged over …"}, {"variant": "chain 1 A13S", "screen value": "0.0021 average fractional NGS count over selection days 2 and 3 (reads of this peptide / all reads for the bait, averaged over …"}, {"variant": "chain 1 A13W", "screen value": "0.00128 average fractional NGS count over selection days 2 and 3 (reads of this peptide / all reads for the bait, averaged over …"}, {"variant": "chain 1 P3E", "screen value": "0.000951 average fractional NGS count over selection days 2 and 3 (reads of this peptide / all reads for the bait, averaged over …"}, {"variant": "chain 1 P3Y", "screen value": "0.000178 average fractional NGS count over selection days 2 and 3 (reads of this peptide / all reads for the bait, averaged over …"}, {"variant": "chain 1 P3H", "screen value": "0.00026 average fractional NGS count over selection days 2 and 3 (reads of this peptide / all reads for the bait, averaged over …"}, {"variant": "chain 1 P3S", "screen value": "0.00024 average fractional NGS count over selection days 2 and 3 (reads of this peptide / all reads for the bait, averaged over …"}]}]}
